The source of these data is PMC3553997 (Nucleic Acids Research, 2012).

The target of one data set is T1, TreR (TM0393) (Thermotoga maritima, UniProt Q9WYM4).
T1 sequence (Q9WYM4 1-371): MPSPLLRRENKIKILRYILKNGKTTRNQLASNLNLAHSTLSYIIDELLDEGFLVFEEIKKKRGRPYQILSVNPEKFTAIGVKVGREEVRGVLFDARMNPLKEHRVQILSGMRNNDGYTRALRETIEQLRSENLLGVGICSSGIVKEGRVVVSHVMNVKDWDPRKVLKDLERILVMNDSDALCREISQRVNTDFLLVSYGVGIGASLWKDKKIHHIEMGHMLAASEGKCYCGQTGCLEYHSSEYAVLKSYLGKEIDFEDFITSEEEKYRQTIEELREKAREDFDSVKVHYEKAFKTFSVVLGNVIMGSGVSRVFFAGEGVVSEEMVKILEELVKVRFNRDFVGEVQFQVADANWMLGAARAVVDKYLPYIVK
Put plainly: EMSA, loss of operator DNA binding. The settings on record: 50 nM protein, TM0392/treT operator DNA; pH 8.0, 150 mM KCl, 5 mM MgCl2, 60°C. In general terms: A gel shift assay detects complexes by their altered migration in electrophoresis.

The target of another data set is T2, ManR (Thermotoga maritima, UniProt Q9X0V1 1-368).
T2 sequence: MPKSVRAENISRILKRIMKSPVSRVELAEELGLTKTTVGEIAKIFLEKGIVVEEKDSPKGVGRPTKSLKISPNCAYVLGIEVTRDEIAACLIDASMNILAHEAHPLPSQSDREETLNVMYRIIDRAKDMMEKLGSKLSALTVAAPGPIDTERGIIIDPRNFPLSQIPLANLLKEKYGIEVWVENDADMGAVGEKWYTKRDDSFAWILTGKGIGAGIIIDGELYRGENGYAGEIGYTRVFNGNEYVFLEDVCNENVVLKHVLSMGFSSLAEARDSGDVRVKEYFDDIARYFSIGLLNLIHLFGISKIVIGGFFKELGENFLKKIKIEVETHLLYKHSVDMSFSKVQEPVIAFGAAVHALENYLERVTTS
The data set can be described thus: EMSA.

The target of another data set is T3, XylR (Thermotoga maritima MSB8, UniProt Q9WXW5 1-378).
T3 sequence: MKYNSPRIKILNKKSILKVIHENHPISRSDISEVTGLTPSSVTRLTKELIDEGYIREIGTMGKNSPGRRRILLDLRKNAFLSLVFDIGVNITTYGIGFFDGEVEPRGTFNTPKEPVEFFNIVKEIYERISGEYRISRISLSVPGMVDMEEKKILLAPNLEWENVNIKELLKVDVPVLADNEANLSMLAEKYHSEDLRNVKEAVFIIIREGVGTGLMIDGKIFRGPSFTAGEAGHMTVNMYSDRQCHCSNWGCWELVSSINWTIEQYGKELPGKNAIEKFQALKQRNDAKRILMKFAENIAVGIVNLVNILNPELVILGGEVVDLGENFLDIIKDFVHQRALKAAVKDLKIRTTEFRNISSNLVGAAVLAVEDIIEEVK
The data set can be described thus: EMSA.

A further data set addresses T4, ChiR (Thermotoga maritima, UniProt Q9WZR5 1-355).
T4 sequence: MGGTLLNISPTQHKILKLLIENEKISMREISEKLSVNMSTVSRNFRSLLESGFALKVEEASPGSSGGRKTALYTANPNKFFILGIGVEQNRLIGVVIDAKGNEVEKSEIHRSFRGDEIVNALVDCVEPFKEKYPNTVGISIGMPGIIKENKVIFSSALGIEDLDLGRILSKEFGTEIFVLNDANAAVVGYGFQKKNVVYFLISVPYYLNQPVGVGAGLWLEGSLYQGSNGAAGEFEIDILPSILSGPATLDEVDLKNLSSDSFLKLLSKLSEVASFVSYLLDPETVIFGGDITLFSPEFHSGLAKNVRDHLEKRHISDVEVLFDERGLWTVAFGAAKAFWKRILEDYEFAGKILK
Put plainly: EMSA.

In the next data set the target is T5, BglR (Thermotoga maritima MSB8, UniProt Q9WXN9 1-381).
T5 sequence: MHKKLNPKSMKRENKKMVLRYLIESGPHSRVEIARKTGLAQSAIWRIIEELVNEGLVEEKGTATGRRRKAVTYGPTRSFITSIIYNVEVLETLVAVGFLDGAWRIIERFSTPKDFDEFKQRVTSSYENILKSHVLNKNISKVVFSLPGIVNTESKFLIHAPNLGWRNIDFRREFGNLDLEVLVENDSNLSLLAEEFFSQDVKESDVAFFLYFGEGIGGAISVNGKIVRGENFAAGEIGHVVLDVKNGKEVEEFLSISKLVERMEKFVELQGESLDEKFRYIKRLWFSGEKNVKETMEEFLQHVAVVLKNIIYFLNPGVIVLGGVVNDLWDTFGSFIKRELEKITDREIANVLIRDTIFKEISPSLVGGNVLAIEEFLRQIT
Put plainly: EMSA.

In a further data set the target is T6, TreR (Thermotoga maritima, UniProt Q9WYM4 1-371).
T6 sequence: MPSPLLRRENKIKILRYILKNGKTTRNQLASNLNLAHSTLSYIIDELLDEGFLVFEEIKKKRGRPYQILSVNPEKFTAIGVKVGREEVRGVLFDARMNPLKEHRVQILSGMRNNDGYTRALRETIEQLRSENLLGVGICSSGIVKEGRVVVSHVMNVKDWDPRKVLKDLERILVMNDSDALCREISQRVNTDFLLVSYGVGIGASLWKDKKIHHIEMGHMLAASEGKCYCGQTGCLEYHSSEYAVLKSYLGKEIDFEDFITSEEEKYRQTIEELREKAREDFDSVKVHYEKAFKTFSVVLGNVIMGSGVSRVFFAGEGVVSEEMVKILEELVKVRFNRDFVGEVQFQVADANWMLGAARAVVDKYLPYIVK
The data set can be described thus: EMSA.

For the next data set, the target named is T7, IolR (Thermotoga maritima MSB8, UniProt Q9WYP2 1-383).
T7 sequence: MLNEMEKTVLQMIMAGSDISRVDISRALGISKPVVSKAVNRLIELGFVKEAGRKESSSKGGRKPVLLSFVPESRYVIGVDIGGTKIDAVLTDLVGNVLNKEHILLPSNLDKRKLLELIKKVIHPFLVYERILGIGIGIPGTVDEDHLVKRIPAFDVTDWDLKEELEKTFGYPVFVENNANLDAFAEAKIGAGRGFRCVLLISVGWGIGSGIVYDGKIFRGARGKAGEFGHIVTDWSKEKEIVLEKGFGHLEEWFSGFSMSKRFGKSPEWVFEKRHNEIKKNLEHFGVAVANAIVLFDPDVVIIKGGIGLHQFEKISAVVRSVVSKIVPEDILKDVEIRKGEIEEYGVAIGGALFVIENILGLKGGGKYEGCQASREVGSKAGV
The data set can be described thus: EMSA.

With `OC[C@H]1O[C@H](O[C@H]2O[C@H](CO)[C@@H](O)[C@H](O)[C@H]2O)[C@H](O)[C@@H](O)[C@@H]1O` [Trehalose], the “Tested potential ligands / (Sugar)” value at TreR (TM0393) came to 0.2 mM.

B1: mtpE site (dsDNA)
DNA 1: TAACATAATCTTTTTATTAGTAAGTGTTATTTATTAACATCCATTTAAA
DNA 2: TTTAAATGGATGTTAATAAATAACACTTACTAATAAAAAGATTATGTTA
With B1, the binding signal with ManR is 25 nM.

B2: xylR site (dsDNA)
DNA 1: ACCTTGATTTTAAATTATTTCCTGCATATAATTAATGTGAACATAATAT
DNA 2: ATATTATGTTCACATTAATTATATGCAGGAAATAATTTAAAATCAAGGT
Take B2: the binding signal with XylR was 2.5 nM.

B3: chiR site (dsDNA)
DNA 1: ACAATAATTTATGAAGTTGTTTGCGGCATGCAACTAACTGATGGGAGGG
DNA 2: CCCTCCCATCAGTTAGTTGCATGCCGCAAACAACTTCATAAATTATTGT
B3: the binding signal with ChiR is 0.5 nM.

B4: bglR site (dsDNA)
DNA 1: GAGTCATATCGTTATAATTTCTTTCTGAGGAAGATAGATAAGAAGCAGG
DNA 2: CCTGCTTCTTATCTATCTTCCTCAGAAAGAAATTATAACGATATGACTC
Consider B4, for which the binding signal with BglR turned out to be 2.5 nM.

B5: xloE site (dsDNA)
DNA 1: AGATTTACATTAAAATATTTCCCGAAAGGAAAAAATATAACATACAATC
DNA 2: GATTGTATGTTATATTTTTTCCTTTCGGGAAATATTTTAATGTAAATCT
Turning to B5, the binding signal in the data set with XylR was 5 nM.

B6: treT site (dsDNA)
DNA 1: TGATTAATTGTGTATTAATTCAAGTTACGAATAAATTTGGGAGGGATCA
DNA 2: TGATCCCTCCCAAATTTATTCGTAACTTGAATTAATACACAATTAATCA
B6 yielded a binding signal in the data set with TreR of 10 nM.

B7: manB site (dsDNA)
DNA 1: CGATGACCCTGATAAATAAGTAAAGTTTACTAATTAACGGGAGGTATCG
DNA 2: CGATACCTCCCGTTAATTAGTAAACTTTACTTATTTATCAGGGTCATCG
In the data set with ManR, B7 displayed a binding signal of 10 nM.

B8: xynA site (dsDNA)
DNA 1: TCGAAGAAGCTCAATTTTTTCTTTACAAAAAATAACTTTAGGGTGATAT
DNA 2: ATATCACCCTAAAGTTATTTTTTGTAAAGAAAAAATTGAGCTTCTTCGA
With B8, the binding signal with XylR was determined as 2.5 nM.

B9: iolR site (dsDNA)
DNA 1: TAGTTGACAAATTGATTATAATGTGGTTGGTTAGTTAACGATAACAAACGAAAGGAATGGAAAAATGCTGAAT
DNA 2: ATTCAGCATTTTTCCATTCCTTTCGTTTGTTATCGTTAACTAACCAACCACATTATAATCAATTTGTCAACTA
Turning to B9, the binding signal with IolR was determined as 2.5 nM.

B10: xylA site (dsDNA)
DNA 1: CCCAAGATTTTATATAATTGATTGATAGAAAAAATTTAGGGAGGTGTTT
DNA 2: AAACACCTCCCTAAATTTTTTCTATCAATCAATTATATAAAATCTTGGG
B10 displayed a binding signal with XylR of 5 nM.
